In patent publication CN110144011A (SHANGHAI NOVAMAB BIOPHARMACEUTICALS CO LTD, dated 2019):
Substitutions are numbered along the chain they refer to. One block for each molecule: values may come before it.

How the values were obtained:
[1] = biological target: TIM-3 on HEK 293T TIM-3稳转细胞 (UniProt Q8TDQ0); assay: flow cytometry on HEK 293T TIM-3 stable cells, 6 ug antibody per 5x10^5 cells, goat-anti-human FITC
[2] = biological target: TIM-3 on HEK 293T TIM-3稳转细胞 (UniProt Q8TDQ0); assay: flow cytometry on HEK293T TIM-3 stable cells, 6 ug nanobody per well, anti-His Alexa Fluor 488
[3] = biological target: T1, TIM3(ECD)-Fc抗原 (human, UniProt Q8TDQ0 22-202); assay: ELISA of crude periplasmic extract on antigen-coated plate, anti-HA detection; clones positive at OD ratio to control >3
T1 construct: extracellular domain;domain: Fc; Made in HEK293F cells, purified on Protein A; also called 人TIM3(ECD); pFUSE-IgG1-TIM3(ECD); not shown: TEV cleavage site at the C-terminus of TIM3(ECD); IgG1 Fc of the pFUSE-IgG1 vector
T1 sequence (looked up): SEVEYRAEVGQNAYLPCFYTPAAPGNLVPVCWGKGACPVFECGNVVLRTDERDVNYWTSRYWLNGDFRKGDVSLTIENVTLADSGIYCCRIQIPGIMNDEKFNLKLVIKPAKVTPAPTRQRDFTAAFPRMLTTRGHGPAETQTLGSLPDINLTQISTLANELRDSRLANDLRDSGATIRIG

binding result [3]: binds
B6: Nb7 (VHH)
VHH: QVQLQESGGGSVQAGGSLRLSCAASGYTYSRACMGWFRQAPGKQREWVSGIRHDGSITYADSVKGRFTISRDNAKNTLYLQMNSLKPEDTAMYYCGADIDCRGTRPPYWGQGTQVTVSS
notes: Camel VHH from the pMECS vector, made in E. coli; detected through HA tag (ELISA) or His tag (flow cytometry); also called 抗体株7

binding result [3]: binds
B7: Nb6 (VHH)
VHH: B6 VHH with A14V, A23T
notes: Camel VHH from the pMECS vector, made in E. coli; detected through HA tag (ELISA) or His tag (flow cytometry); also called 抗体株6

binding result [3]: binds
B8: Nb2 (VHH)
VHH: B6 VHH with A14V, A23T, I57T, T58S, A74T, G103Q, T104S
notes: Camel VHH from the pMECS vector, made in E. coli; detected through HA tag (ELISA) or His tag (flow cytometry); also called 抗体株2

binding result [3]: binds
B9: Nb3 (VHH)
VHH: B6 VHH with A14V, A23T, E46D, I57T, T58S, G103Q, T104S
notes: Camel VHH from the pMECS vector, made in E. coli; detected through HA tag (ELISA) or His tag (flow cytometry); also called 抗体株3

结合力 (阳性细胞的比例) [2]: > 80% | binding result [3]: binds
B10: Nb25 (VHH)
VHH: QVQLQESGGGSVQAGGSLRLSCAASVDIYRTYCMGWFRQAPGKQREGVAAISTDGRIRYANSVEGRFTISKDNANNTLYLQMNSLKPEDTAMYFCAADSARCGLWLGGGYPNYWGRGTQVTVSS
notes: Camel VHH from the pMECS vector, made in E. coli; detected through HA tag (ELISA) or His tag (flow cytometry); also called 抗体株25

binding result [3]: binds
B11: Nb15 (VHH)
VHH: QVQLQESGGGSVQAGGSLKLSCTASVWIFSNCAMAWYRQAPGKEREFVSAIGSFRDTNYADSVKGRFTISRDNAKNTGYLQMNSLKPEDSAMYYCKIQCGTQVNWGQGTQVTVSS
notes: Camel VHH from the pMECS vector, made in E. coli; detected through HA tag (ELISA) or His tag (flow cytometry); also called 抗体株15

结合力 (阳性细胞的比例) [2]: > 80% | binding result [3]: binds
B12: Nb16 (VHH)
VHH: QVQLQESGGGSVQAGGSLRLSCTASRSTYCMGWFRQAPGKEREGVAIISSDGRTNYADPVKGRFTISKDNAKNTMFLQMNSLKPEDTAMYYCATRPGNSCGTGIDMPYWGKGTQVTVSS
notes: Camel VHH from the pMECS vector, made in E. coli; detected through HA tag (ELISA) or His tag (flow cytometry); also called 抗体株16

结合力 (阳性细胞的比例) [2]: > 80% | binding result [3]: binds
B14: Nb26 (VHH)
VHH: QVQLQESGGGLVQPGGSLRLSCTASGSTFSTALMGWFRQAPGKEREGVAVISAGGGSTWYADSVKGRFTISRDNTKNTVFLQMISLKPEDTAMYYCASSNSLWTRESRYFGYWGQGTQVTVSS
notes: Camel VHH from the pMECS vector, made in E. coli; detected through HA tag (ELISA) or His tag (flow cytometry); also called 抗体株26

binding result [3]: binds
B15: Nb19 (VHH)
VHH: QVQLQESGGGSVQAGGSLRLSCAASTYTVVRNCFGWFRQAPGKKREGVAVIDRDGSTRYAASVKGRFTISKDNAKNALYLQMSSLEPEDTAVYYCAADWNNDRSCPLWADGFGYWGQGTQVTVSS
notes: Camel VHH from the pMECS vector, made in E. coli; detected through HA tag (ELISA) or His tag (flow cytometry); also called 抗体株19

结合力 (阳性细胞的比例) [2]: > 80% | binding result [3]: binds
B16: Nb21 (VHH)
VHH: QVQLQESGGGSVQAGGSLRLYCAASKITYVSSCMGWFRQAPGKEREGVASIDRDGSTTYADSVKGRFTISRDNAKDSLYLQMNSLKPEDTAMYYCAADWGRWCSLEKAVDFVYWGQGTQVTVSS
notes: Camel VHH from the pMECS vector, made in E. coli; detected through HA tag (ELISA) or His tag (flow cytometry); also called 抗体株21

binding result [3]: binds
B17: Nb17 (VHH)
VHH: QVQLQESGGGSVQAGGSLRLSCAASTTLYIASLGWFRQAPGKEREGVAAVDRDGNLDYADSVKGRFTFSRDHAKNTLYLQMNSLKPEDAAMYYCSAALSYVPAGRRLQPDAYNYWGQGTQVTVSS
notes: Camel VHH from the pMECS vector, made in E. coli; detected through HA tag (ELISA) or His tag (flow cytometry); also called 抗体株17

binding result [3]: binds
B18: Nb28 (VHH)
VHH: QVQLQESGGGSVQAGGSLRLSCAATKALVISCLAWFRQAPGKEREWVALIGRDGSTSYPDSVKGRFTFSKNTAKNTLELQMNNLKPEDTGAYYCAAATKQDGIPLNPADYDIWGRGTQVTVSS
notes: Camel VHH from the pMECS vector, made in E. coli; detected through HA tag (ELISA) or His tag (flow cytometry); also called 抗体株28

结合力 (阳性细胞的比例) [2]: > 80% | binding result [3]: binds
B19: Nb22 (VHH)
VHH: QVQLQESGGGSVRAGGSLRLSCAASGYTYSLYCMGWFRQAPGKEREGVAAISAGGGTTYYSDAVKGRFTISRDNAKKTLYLQMNSLNPEDTAMYYCARSGGYCGLLEYPFTSWGPGTQVTVSS
notes: Camel VHH from the pMECS vector, made in E. coli; detected through HA tag (ELISA) or His tag (flow cytometry); also called 抗体株22

Second part, the molecule before the results:

Molecule: TIM-3阳性抗体(bench marker，BMK; TSR-022) (antibody)
阳性细胞比例 [1]: 98.1%

B1: Nb18 (VHH)
VHH: QVQLQESGGGLVQPGGSLRLSCAASGFTFSVADMSWVRQGPGKGFEWVSSINSDGVSTYYADSVKGRFTISRDNAENTLYLRANSLKTEDTAVYYCAIGHTPCTAGSCRRGQGTQVTVSS
结合力 (阳性细胞的比例) [2]: > 80%

B2: Nb20 (VHH)
VHH: QVQLQESGGGLVQPGGSLRLSCAASGFTFSVADMTWVRQGLGKGFEWVASVNSDGGSTYYADSVKGRFTISRDNAKNTLYLRLNSLKTEDTAVYYCAIGRTPCTGGFCHRGQGTQVTVSS
结合力 (阳性细胞的比例) [2]: > 80%

B3: Nb4 (VHH)
VHH: B6 VHH with A23T, I57T, T58S, G103Q, T104S
notes: Camel VHH from the pMECS vector, made in E. coli; detected through HA tag (ELISA) or His tag (flow cytometry); also called 抗体株4
binding result [3]: binds

B4: Nb5 (VHH)
VHH: B6 VHH with A14V, A23T, I57T, T58S, F67S, G103Q, T104S
notes: Camel VHH from the pMECS vector, made in E. coli; detected through HA tag (ELISA) or His tag (flow cytometry); also called 抗体株5
binding result [3]: binds

B5: Nb8 (VHH)
VHH: B6 VHH with A23T, S84N
notes: Camel VHH from the pMECS vector, made in E. coli; detected through HA tag (ELISA) or His tag (flow cytometry); also called 抗体株8
binding result [3]: binds

B13: Nb27 (VHH)
VHH: QVQLQESGGGLVQPGGSLRLSCAAAGFTFSSSEMTWVRQAPGKGLEWVARISSTSAFTQYAGSVKGRFTISRDNAKNTLYLQLNSLKTEDTAMYYCAKDVYCGGQYCPPVGPGTQVTVSS
结合力 (阳性细胞的比例) [2]: > 80%

B20: Nb23 (VHH)
VHH: QVQLQESGGGSVQTGGSLRLSCTASGFTFSSADMSWVRQAPGKGLEWVSSINSGGGWTDYADSVQGRFTISRDNGKNTLYLQMNSLKTEDTAVYYCTIGNTYCSRGACLRGQGTQVTVSS
结合力 (阳性细胞的比例) [2]: > 80%

B21: Nb24 (VHH)
VHH: B20 VHH with S11L, T14P, T23A, S31V, W57R, D59Y, V64M, Q65K, N100H, R105G
结合力 (阳性细胞的比例) [2]: > 80%
